Measurements as given in publication PMC6995596, “The Plasma Factor XIII Heterotetrameric Complex Structure: Unexpected Unequal Pairing within a Symmetric Complex” (Biomolecules, 2019).
Each block holds one binder with its values, some of them ahead of it.

What was measured:
[1] = molecular target: T1, recombinant FXIII-B (coagulation factor XIII B subunit) (human, UniProt P05160 21-661); assay: ITC; event 2: M1A1 + A1 ↔ M1A2 (second site)
T1 chain: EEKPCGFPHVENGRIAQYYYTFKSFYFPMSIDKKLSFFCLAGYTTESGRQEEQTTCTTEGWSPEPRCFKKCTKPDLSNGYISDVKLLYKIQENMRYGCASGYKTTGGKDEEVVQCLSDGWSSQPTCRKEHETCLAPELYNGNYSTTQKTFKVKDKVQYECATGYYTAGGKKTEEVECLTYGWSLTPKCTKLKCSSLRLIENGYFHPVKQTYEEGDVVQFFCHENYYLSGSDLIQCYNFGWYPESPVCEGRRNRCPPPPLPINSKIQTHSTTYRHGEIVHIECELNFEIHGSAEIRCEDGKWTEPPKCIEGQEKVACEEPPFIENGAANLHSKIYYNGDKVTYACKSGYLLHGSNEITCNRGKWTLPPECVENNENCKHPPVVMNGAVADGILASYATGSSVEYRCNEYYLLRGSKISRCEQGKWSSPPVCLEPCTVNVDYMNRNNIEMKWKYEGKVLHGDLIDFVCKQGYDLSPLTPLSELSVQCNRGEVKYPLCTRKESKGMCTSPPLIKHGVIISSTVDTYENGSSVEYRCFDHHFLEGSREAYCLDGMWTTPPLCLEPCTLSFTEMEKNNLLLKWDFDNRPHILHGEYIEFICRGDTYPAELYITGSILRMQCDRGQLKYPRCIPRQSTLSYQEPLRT

[2] = molecular target: recombinant FXIII-A2 (coagulation factor XIII A subunit dimer) (UniProt P00488 2-732, zymogen dimer with activation peptide retained (paper residues 1-37 = entry 2-38; paper numbering = entry minus 1); initiator Met removed; limits follow the paper's domain boundaries (1-731) and PDB 1); assay: ITC; 2.5 µM rFXIII-A2 in the cell, 25 µM rFXIII-B in the syringe; MicroCal200; one set of binding sites fitted in Origin, stepwise model FS ↔ MA + A1 ↔ MA2 fitted in Affinimeter; settings: both partners purified

- Kd [1]: 4.36 µM
B1: recombinant FXIII-A2 (coagulation factor XIII A subunit dimer) (natural protein)
chain: SETSRTAFGGRRAVPPNNSNAAEDDLPTVELQGVVPRGVNLQEFLNVTSVHLFKERWDTNKVDHHTDKYENNKLIVRRGQSFYVQIDFSRPYDPRRDLFRVEYVIGRYPQENKGTYIPVPIVSELQSGKWGAKIVMREDRSVRLSIQSSPKCIVGKFRMYVAVWTPYGVLRTSRNPETDTYILFNPWCEDDAVYLDNEKEREEYVLNDIGVIFYGEVNDIKTRSWSYGQFEDGILDTCLYVMDRAQMDLSGRGNPIKVSRVGSAMVNAKDDEGVLVGSWDNIYAYGVPPSAWTGSVDILLEYRSSENPVRYGQCWVFAGVFNTFLRCLGIPARIVTNYFSAHDNDANLQMDIFLEEDGNVNSKLTKDSVWNYHCWNEAWMTRPDLPVGFGGWQAVDSTPQENSDGMYRCGPASVQAIKHGHVCFQFDAPFVFAEVNSDLIYITAKKDGTHVVENVDATHIGKLIVTKQIGGDGMMDITDTYKFQEGQEEERLALETALMYGAKKPLNTEGVMKSRSNVDMDFEVENAVLGKDFKLSITFRNNSHNRYTITAYLSANITFYTGVPKAEFKKETFDVTLEPLSFKKEAVLIQAGEYMGQLLEQASLHFFVTARINETRDVLAKQKSTVLTIPEIIIKVRGTQVVGSDMTVTVEFTNPLKETLRNVWVHLDGPGVTRPMKKMFREIRPNSTVQWEEVCRPWVSGHRKLIASMSSDSLRHVYGELDVQIQRRPSM
modifications: zymogen dimer with activation peptide retained (paper residues 1-37 = entry 2-38; paper numbering = entry minus 1); initiator Met removed; limits follow the paper's domain boundaries (1-731) and PDB 1F13; any residual tag residues not stated

- KD of the first binding event (sequential two-step model) [2]: 0.0015 µM
- KD of the second binding event (MA↔MA2) [2]: 4.3 µM
- dH of the first binding event (sequential two-step model) [2]: -54.1 kcal/mol
- dH of the second binding event (MA↔MA2) [2]: -86 kcal/mol
B2: recombinant FXIII-B (coagulation factor XIII B subunit) (natural protein, human, UniProt P05160 21-661, looked up)
chain: T1 chain
notes: coagulation factor XIII B subunit, human cDNA in the pReciever-M01 mammalian expression vector; secreted protein; the stepwise ITC model treats the syringe species as single FXIII-B units; also called rFXIII-B; rFXIII-B2
